Values of other authors as cited in US20070184095A1, “OSMIUM COMPOUNDS FOR THE TREATMENT OF PSORIASIS” (priority 2006, published 2007).

Substance: Adalimumab
- increase in incidence of serious infections (human, in vivo): two-fold
- most notable complication (human, in vivo): reactivation of tuberculosis

Substance: efalizumab: humanized monoclonal antibody against the CD11a subunit of LFA-1
- patients who developed hemolytic anaemia (human, in vivo): four
- patients with immune-mediated thrombocytopenia (platelet counts at or below 52,000 cells/microliter) (human, in vivo): 0.3%
- subjects developing antiefalizumab antibodies (human, in vivo): approximately 5%
- overall incidence of hospitalization for infections (placebo 1.2): 1.6 per 100 patient-years

Substance: infliximab: chimeric (mouse-human) IgG1 monoclonal antibody, which binds to and inactivates TNF-α
- reported adverse events (small percentage of treated patients): pneumonia, tuberculosis, lymphoma, drug-induced lupus and hepatotoxicity
